Results published in patent publication US7125658B2, “Small protein that interacts with a ribonucleotide reductase subunit and uses thereof” (The Trustees of Columbia University in the City of New York, priority 1998, dated 2006).

What was measured:
[1] = target: T1, Yeast Rnr2p/Rnr4p heterodimer (yeast (Saccharomyces cerevisiae), UniProt P09938 1-399; P49723 1-345); experiment: BIAcore, immobilized Sml1p
T1 construct: Coexpressed and purified as a heterodimer; also called R2/R4 heterodimer
T1 sequence (looked up) 1: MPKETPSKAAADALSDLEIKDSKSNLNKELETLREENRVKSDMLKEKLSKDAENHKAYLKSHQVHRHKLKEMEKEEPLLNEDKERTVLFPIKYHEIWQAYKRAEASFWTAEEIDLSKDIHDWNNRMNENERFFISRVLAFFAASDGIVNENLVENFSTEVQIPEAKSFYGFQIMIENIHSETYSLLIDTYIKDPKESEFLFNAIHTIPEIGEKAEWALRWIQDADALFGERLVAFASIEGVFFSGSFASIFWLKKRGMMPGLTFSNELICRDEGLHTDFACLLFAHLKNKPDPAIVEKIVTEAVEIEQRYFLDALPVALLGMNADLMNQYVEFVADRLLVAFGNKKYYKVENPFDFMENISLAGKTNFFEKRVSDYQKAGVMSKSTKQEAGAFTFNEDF
T1 sequence (looked up) 2: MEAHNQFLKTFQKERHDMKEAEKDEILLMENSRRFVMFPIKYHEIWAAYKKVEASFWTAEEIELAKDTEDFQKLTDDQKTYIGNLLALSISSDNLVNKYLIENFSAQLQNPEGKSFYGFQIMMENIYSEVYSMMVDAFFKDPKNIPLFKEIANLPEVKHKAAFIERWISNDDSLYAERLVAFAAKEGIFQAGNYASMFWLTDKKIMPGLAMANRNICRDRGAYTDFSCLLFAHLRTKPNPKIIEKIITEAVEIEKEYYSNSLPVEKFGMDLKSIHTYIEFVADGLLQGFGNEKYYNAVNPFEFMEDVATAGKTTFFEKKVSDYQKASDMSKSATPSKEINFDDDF

[2] = target: T2, Recombinant mouse ribonucleotide reductase R2 protein (mouse, UniProt P11157 1-390); experiment: BIAcore, immobilized Sml1p
T2 construct: also called mouse R2 protein
T2 sequence (looked up): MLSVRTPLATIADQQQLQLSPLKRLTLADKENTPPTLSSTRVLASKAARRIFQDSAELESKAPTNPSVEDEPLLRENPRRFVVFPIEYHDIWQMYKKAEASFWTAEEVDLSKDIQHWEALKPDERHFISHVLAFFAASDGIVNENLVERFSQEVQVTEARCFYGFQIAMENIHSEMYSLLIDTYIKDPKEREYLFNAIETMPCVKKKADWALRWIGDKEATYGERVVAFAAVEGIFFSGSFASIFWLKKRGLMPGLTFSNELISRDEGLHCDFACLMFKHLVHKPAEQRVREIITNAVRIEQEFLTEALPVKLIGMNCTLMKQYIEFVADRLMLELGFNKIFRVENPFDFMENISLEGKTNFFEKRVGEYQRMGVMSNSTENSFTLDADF

[3] = target: T3, Recombinant yeast Rnr1 protein (large subunit of ribonucleotide reductase) (yeast (Saccharomyces cerevisiae), UniProt P21524 1-888); experiment: BIAcore SPR, calculated from rate constants; calculated from the rate constants, not the equilibrium fit
T3 construct: It is in monomer/dimer/tetramer equilibrium depending on dTTP; also called yeast R1 protein
T3 sequence (looked up): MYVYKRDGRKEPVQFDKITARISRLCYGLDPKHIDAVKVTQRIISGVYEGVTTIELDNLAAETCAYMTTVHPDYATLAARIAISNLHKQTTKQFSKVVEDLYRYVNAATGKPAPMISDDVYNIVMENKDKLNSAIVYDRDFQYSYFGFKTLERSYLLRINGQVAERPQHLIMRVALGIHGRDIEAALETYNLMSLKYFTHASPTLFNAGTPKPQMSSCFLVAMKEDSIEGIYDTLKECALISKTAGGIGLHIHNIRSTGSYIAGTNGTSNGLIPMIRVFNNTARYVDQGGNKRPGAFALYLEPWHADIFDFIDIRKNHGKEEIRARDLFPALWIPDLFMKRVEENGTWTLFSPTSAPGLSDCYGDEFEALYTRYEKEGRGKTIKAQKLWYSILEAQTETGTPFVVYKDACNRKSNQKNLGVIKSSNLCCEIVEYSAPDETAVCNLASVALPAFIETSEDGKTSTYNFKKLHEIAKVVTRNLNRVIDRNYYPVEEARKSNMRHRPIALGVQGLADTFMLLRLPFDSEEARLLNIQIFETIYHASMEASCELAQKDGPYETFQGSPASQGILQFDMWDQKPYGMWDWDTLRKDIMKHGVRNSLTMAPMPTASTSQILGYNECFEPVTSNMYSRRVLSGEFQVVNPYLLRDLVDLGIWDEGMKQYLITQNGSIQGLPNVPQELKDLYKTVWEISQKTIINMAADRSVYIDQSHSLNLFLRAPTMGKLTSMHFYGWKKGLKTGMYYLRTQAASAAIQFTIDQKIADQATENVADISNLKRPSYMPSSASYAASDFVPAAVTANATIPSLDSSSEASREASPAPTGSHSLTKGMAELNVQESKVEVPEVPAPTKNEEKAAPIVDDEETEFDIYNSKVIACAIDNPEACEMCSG
Procedure: BIAcore biosensor analysis. The interaction between Sml1p and either yeast Rnr1p or mouse R1 protein was studied by biosensor analysis using the BIAcore method (Biacore AB). The Sml1 protein was prepared in 10 mM sodium acetate, pH 5.2, at a concentration of 0.44 mg/ml; it was then immobilized on the dextran layer of the sensor chip as described previously for the mouse R2 protein (17). The ligand proteins were equilibrated with running buffer (10 mM Hepes-KOH, pH 7.4, 200 mM potassium acetate, 1 mM EDTA, 5 mM magnesium acetate and 0.05% Surfactant P20 (BIAcore). The interactions were studied at a constant temperature of 22° C. and a constant flow of 5 μl/min. Kinetics for the interaction of Sml1p with yeast Rnr1p was determined by allowing the immobilized Sml1p to interact with increasing concentrations of Rnr1p (18). The resonance unit (RU) is proportional to the mass, and 1 RU corresponds to a surface concentration of 1 pg of protein/mm² of the 100 nm thick dextran layer (19).
In control experiments, where the same series of Rnr1p solutions passed a sensor chip without immobilized Sml1p, a "bulk effect" gave a response of only about 60 RU. […] Calculating the equilibrium dissociation constant from these rate constants gave a K_0 of about 0.25 µM, which is close to the directly determined K_0.

B1: Recombinant yeast Sml1 protein (other)
chain: MQNSQDYFYAQNRCQQQQAPSTLRTVTMAEFRRVPLPPMAEVPMLSTQNSMGSSASASASSLEMWEKDLEERLNSIDHDMNNNKFGSGELKSMFNQGKVEEMDF
notes: Immobilized on the BIAcore chip in the biosensor experiments; also called YML058W product
- binding result [1]: no binding (tested: 0.1 mg/ml)
- binding result [2]: no binding
- Kd [3]: ~250 nM
